# PMC5714612 (Cell Reports, 2017)
# T1: Recombinant His-tagged S135E Syt4 (rat, UniProt P50232 1-425, S135E)
# T1 sequence (looked up): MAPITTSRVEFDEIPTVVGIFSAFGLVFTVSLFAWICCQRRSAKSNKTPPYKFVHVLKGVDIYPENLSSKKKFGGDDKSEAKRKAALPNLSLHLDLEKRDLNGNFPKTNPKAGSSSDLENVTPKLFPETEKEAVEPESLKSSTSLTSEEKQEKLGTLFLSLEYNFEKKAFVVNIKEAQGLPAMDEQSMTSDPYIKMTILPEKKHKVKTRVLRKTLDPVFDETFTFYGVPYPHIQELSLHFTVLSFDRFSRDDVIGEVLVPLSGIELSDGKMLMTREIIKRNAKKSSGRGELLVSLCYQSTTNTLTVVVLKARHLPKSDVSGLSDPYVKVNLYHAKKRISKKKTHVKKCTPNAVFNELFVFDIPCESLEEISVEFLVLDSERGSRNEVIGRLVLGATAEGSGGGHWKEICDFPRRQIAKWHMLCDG
# B1: mCherry-tagged S135A Syt4 (phosphodeficient) (natural protein, rat, UniProt P50232 1-425, looked up)
# chain: MAPITTSRVEFDEIPTVVGIFSAFGLVFTVSLFAWICCQRRSAKSNKTPPYKFVHVLKGVDIYPENLSSKKKFGGDDKSEAKRKAALPNLSLHLDLEKRDLNGNFPKTNPKAGSSSDLENVTPKLFPETEKEAVAPESLKSSTSLTSEEKQEKLGTLFLSLEYNFEKKAFVVNIKEAQGLPAMDEQSMTSDPYIKMTILPEKKHKVKTRVLRKTLDPVFDETFTFYGVPYPHIQELSLHFTVLSFDRFSRDDVIGEVLVPLSGIELSDGKMLMTREIIKRNAKKSSGRGELLVSLCYQSTTNTLTVVVLKARHLPKSDVSGLSDPYVKVNLYHAKKRISKKKTHVKKCTPNAVFNELFVFDIPCESLEEISVEFLVLDSERGSRNEVIGRLVLGATAEGSGGGHWKEICDFPRRQIAKWHMLCDG
# B2: mCherry-tagged S135E Syt4 (phosphomimetic) (natural protein, rat, UniProt P50232 1-425, looked up)
# chain: MAPITTSRVEFDEIPTVVGIFSAFGLVFTVSLFAWICCQRRSAKSNKTPPYKFVHVLKGVDIYPENLSSKKKFGGDDKSEAKRKAALPNLSLHLDLEKRDLNGNFPKTNPKAGSSSDLENVTPKLFPETEKEAVEPESLKSSTSLTSEEKQEKLGTLFLSLEYNFEKKAFVVNIKEAQGLPAMDEQSMTSDPYIKMTILPEKKHKVKTRVLRKTLDPVFDETFTFYGVPYPHIQELSLHFTVLSFDRFSRDDVIGEVLVPLSGIELSDGKMLMTREIIKRNAKKSSGRGELLVSLCYQSTTNTLTVVVLKARHLPKSDVSGLSDPYVKVNLYHAKKRISKKKTHVKKCTPNAVFNELFVFDIPCESLEEISVEFLVLDSERGSRNEVIGRLVLGATAEGSGGGHWKEICDFPRRQIAKWHMLCDG
# B3: Kif1A-GFP (natural protein, rat, UniProt F1M4A4 1-1707, looked up)
# chain: MAGASVKVAVRVRPFNSREMSRDSKCIIQMSGSTTTIVNPKQPKETPKSFSFDYSYWSHTSPEDINYASQKQVYRDIGEEMLQHAFEGYNVCIFAYGQTGAGKSYTMMGKQEKDQQGIIPQLCEDLFSRINDTTNDNMSYSVEVSYMEIYCERVRDLLNPKNKGNLRVREHPLLGPYVEDLSKLAVTSYNDIQDLMDSGNKARTVAATNMNETSSRSHAVFNIIFTQKRHDAETNITTEKVSKISLVDLAGSERADSTGAKGTRLKEGANINKSLTTLGKVISALAEMDSGPNKNKKKKKTDFIPYRDSVLTWLLRENLGGNSRTAMVAALSPADINYDETLSTLRYADRAKQIRCNAIINEDPNNKLIRELKDEVTRLRDLLYAQGLGDITDTNTVPGGPKLTNALVGMSPSSSLSALSSRAASVSSLHERILFAPGSEEAIERLKETEKIIAELNETWEEKLRRTEAIRMEREALLAEMGVAMREDGGTLGVFSPKKTPHLVNLNEDPLMSECLLYYIKDGVTRVGREDAERRQDIVLSGHFIKEEHCIFRSDSRGGGEAVVTLEPCEGADTYVNGKKVTEPSILRSGNRIIMGKSHVFRFNHPEQARQERERTPCAETPAEPVDWAFAQRELLEKQGIDMKQEMEQRLQELEDQYRREREEATYLLEQQRLDYESKLEALQKQMDSRYYPEVNEEEEEPEDEVQWTERECELALWAFRKWKWYQFTSLRDLLWGNAIFLKEANAISVELKKKVQFQFVLLTDTLYSPLPPDLLPPEAAKDRETRPFPRTIVAVEVQDQKNGATHYWTLEKLRQRLDLMREMYDRAAEVPSSVVEDCDNVVTGGDPFYDRFPWFRLVGRAFVYLSNLLYPVPLVHRVAIVSEKGEVKGFLRVAVQAISADEEAPDYGSGVRQSGTAKISFDDQHFEKFQSESCPVVGMSRSGTSQEELRIVEGQGQGADAGPSADEVNNNTCSAVPPEGLLDSPEKAALDGPLDTALDHLRLGSTFTFRVTVLQASSISAEYADIFCQFNFIHRHDEAFSTEPLKNTGRGPPLGFYHVQNIAVEVTKSFIEYIKSQPIVFEVFGHYQQHPFPPLCKDVLSPLRPSRRHFPRVMPLSKPVPATKLSTMTRPSPGPCHCKYDLLVYFEICELEANGDYIPAVVDHRGGMPCMGTFLLHQGIQRRITVTLLHETGSHIRWKEVRELVVGRIRNTPETDEALIDPNILSLNILSSGYVHPAQDDRQFLDSDIPRTFYQFEAAWDSSMHNSLLLNRVTPYREKIYMTLSAYIEMENCTQPAVITKDFCMVFYSRDAKLPASRSIRNLFGSGSLRATEGNRVTGVYELSLCHVADAGSPGMQRRRRRVLDTSVAYVRGEENLAGWRPRSDSLILDHQWELEKLSLLQEVEKTRHYLLLREKLETTQRPVPEVLSPASSEDSESRSSSGASSPLSAEGQPSPLEVPNERQRELAVKCLRLLMHTFNREYTHSHVCISASESKLSEMSVTLMRDPSMSPLGAATLTPSSTCPSLIEGRYGATDVRTPQPCSRPASPEPELLPELDSKKTPSPVRATETEKEPQRLLVPDIQEIRVSPIVSKKGYLHFLEPHTAGWAKRFVVVRRPYAYMYNSDKDTVERFVLNLSTAQVEYSEDQQAMLKTPNTFAVCTEHRGILLQANSDKDMHDWLYAFNPLLAGTIRSKLSRRRSAQMRV
# Assays:
# [1] = target: Kif1A (Kif1A-GFP, GST-tagged full-length Kif1A) (UniProt F1M4A4); test: co-IP with GFP-Trap beads, Syt4 blotted; details: reference: S135A; sites S135
# [2] = target: B3; test: co-IP
# [3] = target: B2; test: co-IP
# [4] = target: B1; test: co-IP
# [5] = target: T1, Recombinant His-tagged S135E Syt4; test: pull-down
molecule,measurement,setting,value
Synaptotagmin-4 (Syt4) (from UniProt P50232) S135E,other: percent of WT,[1],weaker; reference 134.4 ± 11.1
B1,"amount co-immunoprecipitated, percent of WT",[2],134 % of WT
B2,"amount co-immunoprecipitated, percent of WT",[2],42.9 % of WT
B3,"amount co-immunoprecipitated, percent of WT",[3],87 % of WT
same,"amount co-immunoprecipitated, percent of WT",[4],158 % of WT
"endogenous Kif1A (natural protein, UniProt P33173 1-1695, looked up) MAGASVKVAVRVRPFNSREMSRDSKCIIQMSGSTTTIVNPKQPKETPKSFSFDYSYWSHTSPEDINYASQKQVYRDIGEEMLQHAFEGYNVCIFAYGQTGAGKSYTMMGKQEKDQQGIIPQLCEDLFSRINDTTNDNMSYSVEVSYMEIYCERVRDLLNPKNKGNLRVREHPLLGPYVEDLSKLAVTSYNDIQDLMDSGNKPRTVAATNMNETSSRSHAVFNIIFTQKRHDAETNITTEKVSKISLVDLAGSERADSTGAKGTRLKEGANINKSLTTLGKVISALAEMDSGPNKNKKKKKTDFIPYRDSVLTWLLRENLGGNSRTAMVAALSPADINYDETLSTLRYADRAKQIRCNAIINEDPNNKLIRELKDEVTRLRDLLYAQGLGDITDMTNALVGMSPSSSLSALSSRAASVSSLHERILFAPGSEEAIERLKETEKIIAELNETWEEKLRRTEAIRMEREALLAEMGVAMREDGGTLGVFSPKKTPHLVNLNEDPLMSECLLYYIKDGVTRVGREDAERRQDIVLSGHFIKEEHCIFRSDSRGGGEAVVTLEPCEGADTYVNGKKVTEPSILRSGNRIIMGKSHVFRFNHPEQARQERERTPCAETPAEPVDWAFAQRELLEKQGIDMKQEMEQRLQELEDQYRREREEATYLLEQQRLDYESKLEALQKQMDSRYYPEVNEEEEEPEDEVQWTERECELALWAFRKWKWYQFTSLRDLLWGNAIFLKEANAISVELKKKVQFQFVLLTDTLYSPLPPDLLPPEAAKDRETRPFPRTIVAVEVQDQKNGATHYWTLEKLRQRLDLMREMYDRAAEVPSSVVEDCDNVVTGGDPFYDRFPWFRLVGRAFVYLSNLLYPVPLVHRVAIVSEKGEVKGFLRVAVQAISADEEAPDYGSGVRQSGTAKISFDDQHFEKFQSESCPVVGMSRSGTSQEELRIVEGQGQGADAGPSADEVNNNTCSAVPPEGLMDSPEKAALDGPLDTALDHLRLGSTFTFRVTVLQASSISAEYADIFCQFNFIHRHDEAFSTEPLKNTGRGPPLGFYHVQNIAVEVTKSFIEYIKSQPIVFEVFGHYQQHPFPPLCKDVLSPLRPSRRHFPRVMPLSKPVPATKLSTMTRPSPGPCHCKYDLLVYFEICELEANGDYIPAVVDHRGACMGTFLLHQGIQRRITVTLLHETGSHIRWKEVRELVVGRIRNTPETDEALIDPNILSLNILSSGYVHPAQDDRVFFGNDTRTFYQFEAAWDSSMHNSLLLNRVTPYREKIYMTLSAYIEMENCTQPAVITKDFCMVFYSRDAKLPASRSIRNLFGSGSLRATEGNRVTGVYELSLCHVADAGSPGMQRRRRRVLDTSVAYVRGEENLAGWRPRSDSLILDHQWELEKLSLLQEVEKTRHYLLLREKLETTQRPGPEVLSPASSEDSESRSSSGASSPLSAEGQPSPLEAPNERQRELAVKCLRLLMHTFNREYTHSHVCISASESKLSEMSVTLMRDPSMSPLGAATLTPSSTCPSLIEGRYGATDVRTPQPCSRPASPEPELLPELDSKKTPSPVRATETEKEPQRLLVPDIQEIRVSPIVSKKGYLHFLEPHTAGWAKRFVVVRRPYAYMYNSDKDTVERFVLNLSTAQVEYSEDQQAMLKTPNTFAVCTEHRGILLQANSDKDMHDWLYAFNPLLAGTIRSKLSRRRSAQMRV","amount pulled down, percent of WT",[5],43.6 % of WT
